The record followed here is patent US10654939 (BEIJING MABWORKS BIOTECH, dated 2020).

Test [1] deals with T1, rhesus CD40 expressed on HEK293A cells (rhesus monkey, UniProt P25942 21-277 (human entry)).
T1 construct: also called HEK293A/rhesusCD40
T1 chain: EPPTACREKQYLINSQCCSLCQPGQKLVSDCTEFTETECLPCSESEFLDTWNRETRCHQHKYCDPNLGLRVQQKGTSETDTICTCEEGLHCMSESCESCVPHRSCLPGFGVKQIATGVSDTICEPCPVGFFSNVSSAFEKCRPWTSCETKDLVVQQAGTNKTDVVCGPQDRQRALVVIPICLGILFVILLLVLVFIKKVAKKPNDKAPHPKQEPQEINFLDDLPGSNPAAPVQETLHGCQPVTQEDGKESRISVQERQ
Put plainly: FACS, HEK293A/rhesusCD40 cells. As for the experimental part: (§1) Example 5 Mouse Anti-CD40 Monoclonal Antibodies Bound to Human and Rhesus CD40 Expressed on HEK293A Cells To further determine whether anti-CD40 antibodies bound to human, monkey or mouse CD40 expressed on HEK293A cells, a cell-based binding assay by FACS was performed using the HEK293A cells stably overexpressing human, monkey or mouse CD40 as generated in Example 1, respectively. Briefly, 10^5 HEK293A cells were seeded into each well of the 96-well plates and serially diluted anti-CD40 antibodies were added to the plates. After incubated at 4° C. for 1 hour, plates were washed 3 times with PBST. Then, an APC coupled Goat Anti-Mouse IgG (BioLegen, US, Cat #: 405308) diluted 500× was added to the plates. After incubation at 4° C. for 1 hour, the plates were washed with PBS for 3 times and then cell fluorescence was monitored using a FACS machine (BD).
Background: Flow cytometry measures light scatter and fluorescence of single cells or particles in a stream.

The next test addresses T2, mouse CD40-hFc (mouse, UniProt P27512 20-193).
T2 construct: Bought protein; also called muCD40-hFc
Nature of the test: ELISA, muCD40-hFc coated. On the technique in general: ELISA stands for enzyme-linked immunosorbent assay.

Test [2] addresses T3, mouse CD40 expressed on HEK293A cells (mouse, UniProt P27512 20-289).
T3 construct: also called HEK293A/mouseCD40
Put plainly: FACS, HEK293A/mouseCD40 cells.

For test [3], the target named is T4, recombinant rhesus CD40 (ECD)-hFc (rhesus monkey, UniProt P25942 21-193 (human entry)).
T4 construct: Bought protein; also called rhCD40(ECd)-hFc; monkey CD40 (ECD)-hFc
T4 chain: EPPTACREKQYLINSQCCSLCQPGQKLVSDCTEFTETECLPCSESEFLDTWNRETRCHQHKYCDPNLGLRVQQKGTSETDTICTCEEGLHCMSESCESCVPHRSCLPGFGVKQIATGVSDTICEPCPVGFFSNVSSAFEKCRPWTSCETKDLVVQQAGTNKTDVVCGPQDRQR
Put plainly: ELISA, rhCD40(ECD)-hFc coated. The protocol: (§2) ELISA plates were coated with 500 ng/ml human CD40 (ECD)-his (Sino Biological, CN, Cat #: 10774-H08H) at 4° C. overnight. The wells were blocked with 200 μl of blocking buffer (PBS containing 1% BSA, 1% goat serum, and 0.05% Tween 20) for 2 hours at room temperature, and then 100 μl of serially diluted anti-CD40 antibodies (starting from 40000 ng/ml) were added to each well and incubated for 1 hour at RT. Plates were washed for 3 times with PBST (PBS+0.05% Tween 20), added with Goat-anti-mouse IgG-HRP (Simga, US, Cat #: A9309-1 ml) diluted 5000×, and incubated for 1 hour at RT. Plates were developed with freshly prepared Ultra-TMB (BD, US, Cat #: 555214) for 5 minutes at RT. Absorbance was read on a SpectraMax® i3X (Molecular Devies, US) at 450 nm.
Species-cross-reactivity of the 20 CD40 mAbs to monkey or mouse CD40 was further assessed by direct ELISA. Briefly, 500 ng/ml monkey CD40 (ECD)-hFc (Sino Biological, CN, Cat #: 90097-C02H) or mouse CD40-hFc (Sino Biological, CN, Cat #: 50324-M03H) was coated on 96-well ELISA plates followed by incubation with 100 μl of serially diluted anti-CD40 antibodies (starting from 40000 ng/ml). Goat anti-mouse IgG conjugated with HRP (Sigma, US, Cat #: A9309-1ml) was used then.

In test [4] the target is T5, human CD40 expressed on cells (human, UniProt P25942 21-277). Put plainly: cell-based or functional assay.
T5 sequence (P25942 21-277 limits assumed): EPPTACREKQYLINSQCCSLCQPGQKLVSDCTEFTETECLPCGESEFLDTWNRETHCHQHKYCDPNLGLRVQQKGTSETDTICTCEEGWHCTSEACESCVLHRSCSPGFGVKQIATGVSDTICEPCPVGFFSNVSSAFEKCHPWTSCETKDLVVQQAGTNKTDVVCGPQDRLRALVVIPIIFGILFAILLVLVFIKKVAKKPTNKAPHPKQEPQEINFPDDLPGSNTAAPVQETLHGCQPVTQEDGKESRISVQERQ
Test [5] has as its target T6, recombinant human CD40 (ECD)-his (human, UniProt P25942 21-193).
T6 construct: Bought protein; also called hCD40(ECD)-his; TNFRSF5
Put plainly: ELISA, hCD40(ECD)-his coated. As for the experimental part: as §2

Test [6] deals with T5, human CD40 expressed on cells. Put plainly: FACS, HEK293A/humanCD40 cells. The protocol:
as §1

As usually defined, the EC50 is the concentration at which the effect is half-maximal.

T6 sequence (P25942 21-193): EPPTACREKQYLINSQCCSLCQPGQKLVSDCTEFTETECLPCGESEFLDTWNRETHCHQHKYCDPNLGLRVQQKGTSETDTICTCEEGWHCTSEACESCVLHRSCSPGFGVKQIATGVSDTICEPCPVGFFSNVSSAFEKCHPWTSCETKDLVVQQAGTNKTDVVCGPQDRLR
T2 sequence (P27512 20-193): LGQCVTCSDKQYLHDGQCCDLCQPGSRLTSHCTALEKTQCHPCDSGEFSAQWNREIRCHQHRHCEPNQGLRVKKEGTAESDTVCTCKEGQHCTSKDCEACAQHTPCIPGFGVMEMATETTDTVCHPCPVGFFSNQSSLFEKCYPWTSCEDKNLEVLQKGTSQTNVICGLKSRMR
T3 sequence (P27512 20-289 limits assumed): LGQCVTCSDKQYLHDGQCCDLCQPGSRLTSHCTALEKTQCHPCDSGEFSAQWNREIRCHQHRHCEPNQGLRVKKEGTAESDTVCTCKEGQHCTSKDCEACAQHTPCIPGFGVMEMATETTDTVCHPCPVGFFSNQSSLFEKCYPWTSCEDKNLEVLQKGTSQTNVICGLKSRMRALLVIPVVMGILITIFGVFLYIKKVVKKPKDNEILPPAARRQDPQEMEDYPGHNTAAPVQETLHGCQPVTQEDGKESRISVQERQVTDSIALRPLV

B1: 92F6 (mouse monoclonal antibody) (antibody, V domains shown)
VH: QVQLEQSGAEVVKPGASVKVSCTASGFNIKDTYMHWVKQRPEQGLEWIGRIDPANGNTNYDPKFQGKATITADTSSNTGYLQLSSLTSEDTAVYYCSRWGYDWYFDVWGAGTSVTVSS
VL: DIVITQSTAIMSASPGEKVTITCSASSSVSYIHWFQQKPGTSPKLWIYTTANLASGVPARFSGSGSGTSYSLTISRMEAEDAATYYCQQRSNYPFTFGSGTKLEIK
As for B1, the EC50 in test [1] amounted to 0.13 µg/mL; in test [3] it was 0.0365 µg/mL; in test [5], 0.0291 µg/mL; in test [6], 0.0779 µg/mL. For the same molecule, the binding result (with mouse CD40-hFc; in test [2]) was “no binding” in each case. Further, the “HEK Blue EC50” value in test [4] came to 0.264 µg/mL.

B2: 77D9 (mouse monoclonal antibody) (antibody, V domains shown)
VH: QVKLEESGGGLVKPGGSLKLSCAASGFTFRNYAMSWVRQSPGERLEWVAEVSGSGYYTYYPDTVTGRFTISRDNANNTLYLEVSSLRSEDTAMYYCTSRAYWGQGTLVTVSA
VL: IVMTQSPTLSLPVSLGDQASISCRSSQSIVLTNGNTYLEWYLQRPGQSPKLLIYKVSNRFSGVPDRFSGSGSGTDFTLKISRVEAEDLGVYYCFQGSHVPYTFGGGTKLEIK
B2: the EC50 in test [1] worked out at 0.117 µg/mL; in test [3] it was 0.0206 µg/mL; in test [5] it was 0.0214 µg/mL; in test [6] it was 0.033 µg/mL. The binding result (in the test with mouse CD40-hFc; in test [2]) was “no binding” throughout. Moreover, the “HEK Blue EC50” value in test [4] was 0.0223 µg/mL.

B3: 50F6 (mouse monoclonal antibody) (antibody, V domains shown)
VH: QVQLEQSGDDLVKPGASVKLSCKASGYTFTTYWINWIKQRPGQGLEWIGRISPGSGSTHYNEMFKGKATLTVDTSSSTAYIQLSSLSSEDSAVYFCTRNDYWGQGTTLTVSS
VL: DIVLTQSPLSLPVSLGDQASISCRSSQSIVNSNGNTYLEWYLQKPGQSPKLLIYKVSNRFSGVPDRFSGSGSGTDFTLKISRVEAEDLGVYYCFQGSHVPLTFGAGTKLELK
As for B3, the EC50 came out at 0.137 µg/mL in test [1], 0.016 µg/mL in test [3], 0.0155 µg/mL in test [5] and 0.134 µg/mL in test [6]. In addition, the binding result (with mouse CD40-hFc; in test [2]) was “no binding” throughout. The “HEK Blue EC50” value in test [4] was 0.0422 µg/mL.

B4: 142F7 (mouse monoclonal antibody) (antibody, V domains shown)
VH: EVQLEQSGAELVRPGTSVKVSCKASGYAFTNYLIEWGIQRPGQGLEWIGVINPGTGGTNYNEKFKDKATLTTDKSSSTAYMQLSSLTSDDSAVYFCARGGSGFAYWGQGTLVTVSA
VL: DIVLTQTTSSLSASLGDRVTISCRASQDINNYLNWYQQKPDGTVKLLIYYTSRLHSGVPSRFSGSGSGTDYSLTISNLEQEDIATYFCQQGNTLPWTFGGGTKLEIK
For B4, the EC50 in test [1] is 0.0807 µg/mL; in test [3] it was 0.0201 µg/mL; in test [5], 0.0171 µg/mL; in test [6], 0.0155 µg/mL. The binding result (with mouse CD40-hFc; in test [2]) was “no binding” each time. Moreover, the “HEK Blue EC50” value in test [4] amounted to 0.0648 µg/mL.

B5: 7B4 (mouse monoclonal antibody) (antibody, V domains shown)
VH: EVQLQESGPGLVKPSQSLSLTCSVTGYSITTNYYWNWIRQFPGNKLEWMGYIKYDGSNNYNPSLKNRISITRDTSKNQFFLKLNSVTTEDTATYYCARLDYWGQGTSVTVSS
VL: DIVLTQSPLSLPVSLGDQASISCRSSQSLENSNGNTFLNWFLQKPGQSPQLLIYKVSNRFSGVLDRFSGTGSGTDFTLTISRVEAEDLGVYFCLQVTHVPFTFGSGTKLEIK
In the case of B5, the EC50 in test [1] came out at 0.0159 µg/mL; in test [3] it was 0.0152 µg/mL; in test [5] it was 0.0153 µg/mL; in test [6], 0.0101 µg/mL. Moreover, the binding result (with mouse CD40-hFc; in test [2]) was “no binding” each time. For the same molecule, the “HEK Blue EC50” value in test [4] was determined as 0.0261 µg/mL.

B6: 16A6 (mouse monoclonal antibody) (antibody, V domains shown)
VH: EVQLEQSGPGLVKPSQSLSLTCSVTGYSITTNYHWNWIRQFPGNKLEWMGYIKYDGSNNYNPSLKNRISITRDTSKNQFFLKLNSVTTEDTATYYCARLDYWGQGTSVTVSS
VL: DIVLTQSTLSLSVSLGDQASISCRSSQSLENSNGNTFLNWFLQKPGQSPQLLIYKVSNRFSGVLDRFSGTGSGTDLTLTISRVEAEDLGVYFCLQVTHVPFTFGSGTKLEIK
For the molecule B6, the EC50 in test [1] worked out at 0.044 µg/mL; in test [3] it was 0.0129 µg/mL; in test [5], 0.0131 µg/mL; in test [6], 0.0682 µg/mL. The binding result (with mouse CD40-hFc; in test [2]) was “no binding” throughout. In test [4], the “HEK Blue EC50” value was 0.0114 µg/mL.

B7: 13A2 (mouse monoclonal antibody) (antibody, V domains shown)
VH: EVKLEQSGPGLVKPSQSLSLTCSVTGYSITTNYYWNWIRQFPGNKLEWMGYINYDGSNNYNPSLKNRISITRDTSKNQFFLKLNSVTTEDTATYYCARLDYWGQGTSVTVSS
VL: DIVMTQSPLSLPVSLGDQASISCRSSQSLENSNGNTFLNWFLQKPGQSPQLLIYKVSNRFSGVLDRFSGTGSGTDFTLTISRVEAEDLGVYFCLQVTHVPFTFGSGTKLEIK
Consider B7, for which the EC50 in test [1] was 0.0843 µg/mL; in test [3] it was 0.0141 µg/mL; in test [5] it was 0.0207 µg/mL; in test [6], 0.0485 µg/mL. Besides, the binding result (in the test with mouse CD40-hFc; in test [2]) was “no binding” in each case. The “HEK Blue EC50” value in test [4] was 0.0126 µg/mL.

B8: 29A10 (mouse monoclonal antibody) (antibody, V domains shown)
VH: QVKLEQSGGGLVKPGGSLKLSCAASGFTFSHYYMYWVRQTPEKRLEWVATISDAGSYTYYSDSVKGRFTISRDNAKNNLYLQMSSLKSDDTAMYFCARTYYRGDGGYWFFDVWGAGTAVTVSS
VL: DIVITQSTSSLAVSVGEKVTMSCESSQSLLYSSNQKNYLAWYQQKPGQSPKLLIYWASTRESGVPDRFTASGSGTDFTLTISSVKAEDLAVYYCQQYYRSPLTFGAGTKLELK
Turning to B8, the EC50 in test [1] came to 0.184 µg/mL; in test [3], 0.0302 µg/mL; in test [5] it was 0.0318 µg/mL; in test [6] it was 0.203 µg/mL. Also, the binding result (with mouse CD40-hFc; in test [2]) was “no binding” each time. Besides, the “HEK Blue EC50” value in test [4] is 0.14 µg/mL.
